# Patent US20230277632A1, “MODIFIED PlySs2 LYSINS AND ANTIBIOTIC COMBINATIONS FOR USE AGAINST GRAM-POSITIVE BACTERIA” (ContraFect Corporation, priority 2020, published 2023)
# Where “and” joins values, the source holds several entries; their conditions need not be identical. Identical values can stand only once.
# B1: pp296: modified PlySs2 lysin, SEQ ID NO: 6: L92W, V104S, V128T, Y137S, Y164K, N184D, S198Q (protein)
# chain: MTTVNEALNNVRAQVGSGVSVGNGECYALASWYERMISPDATVGLGAGVGWVSGAIGDTISAKNIGSSYNWQANGWTVSTSGPFKAGQIVTWGATPGNPYGHVSIVEAVDGDRLTILEQNYGGKRYPTRNYYSAASSRQQVVHYITPPGTVAQSAPNLAGSRSKRETGTMTVTVDALNVRRAPDTSGEIVAVYKRGEQFDYDTAIIDVNGYAWVSYIGGSGKRNYVATGATKDGKRFGNAWGTFK
# Tests used:
# S. aureus isolates [1] = test: MIC determination (broth microdilution) against 8 S. aureus isolates; type: cell-based; parameters: MIC pp296 (AST media): unit not given beside the values; conditions: for MIC pp296 (mouse serum): 100% ICR mouse serum; for MIC pp296 (human serum): 100% human serum; for MIC pp296 (AST media): caMHB-HSD
# Procedure: Suitable methods for assessing the activity of a modified lysin polypeptide as disclosed herein are well known in the art and described in the examples. […] For example, MIC values for a modified lysin polypeptide may be determined against e.g., laboratory Staphylococcus aureus strains, in e.g., Mueller-Hinton broth or Mueller-Hinton broth supplemented with serum, such as horse serum.
# The pp296 MICs were determined based on (1) cation-adjusted Mueller-Hinton Broth with 25% horse serum and 0.5 mM DTT (caMHB-HSD); (2) human serum (100% serum); and (3) ICR mice (100% serum). Vancomycin and daptomycin MICs of the isolate strains were determined in accordance with the broth microdilution method as outlined by CLSI. Results of the MIC determination are shown below in Table 2. The bacterial isolates were frozen at −80° C. in skim milk.
# S. aureus isolates [2] = test: In vivo efficacy of vancomycin in combination with pp296, neutropenic murine thigh infection model; conditions: 24 h
# Procedure: Study animals: Specific pathogen-free female ICR mice (average body weight 23 grams) were provided food and water ad libitum and maintained and used in accordance with National Research Council recommendations. Animals were allowed a 48-hour post-delivery acclimation period before every experiment. Mice were rendered transiently neutropenic by injection of cyclophosphamide via intraperitoneal (IP) route at a dose of 150 mg/kg of body weight at four days before bacterial inoculation and 100 mg/kg of body weight at one day before bacterial inoculation.
# Neutropenic Thigh Infection Model: Two transfers of the bacterial isolates were performed onto trypticase soy agar plates with 5% sheep blood and placed into an incubator at 37° C. for approximately 24 hours. After an 18-24 hour incubation of the second transfer, a suspension of approximately 10^7 CFU/mL was made for inoculation. Final bacterial inoculum concentrations were confirmed by serial dilution and plating techniques. Thigh infection with the test isolate was produced by intramuscular injection of 0.1 mL of the bacterial inoculum into each thigh of the mice. Antimicrobial therapy was initiated 2 hours after bacterial inoculation, as detailed below. […]
# Untreated control mice (n=3) were sacrificed just prior to antibiotic administration and 24 hours after bacterial inoculation. Animals sacrificed prior to antibiotic initiation served as 0-hour control animals, representing initial bacterial burden. […] Treatment mice (n=3/group) were sacrificed at the end of the 24 hour treatment period. After sacrifice, both thighs for each mouse were homogenized in normal saline. Serial dilutions were plated on Trypticase soy agar with 5% sheep blood and incubated for 18 to 20 hours at 37.0 to determine the CFU. Efficacy was calculated as the change in bacterial density obtained in treated mice after 24 hours compared with the numbers in the 0-hour control animals. Bacterial density represents the average CFU determined from 3 mice, each contributing 2 thighs.
molecule,measurement,setting,value
B1,MIC pp296 (mouse serum),S. aureus isolates [1]; ATCC 29213 MSSA,256
same,MIC pp296 (mouse serum),S. aureus isolates [1]; CAIRD426 MRSA,32
same,MIC pp296 (mouse serum),S. aureus isolates [1]; HPV107 MRSA,128
same,MIC pp296 (mouse serum),S. aureus isolates [1]; JMI227 MRSA,64
same,MIC pp296 (mouse serum),S. aureus isolates [1]; JMI4789 MRSA,256
same,MIC pp296 (mouse serum),S. aureus isolates [1]; NRS100 (COL) MRSA,32
same,MIC pp296 (mouse serum),S. aureus isolates [1]; NRS123 (MW2) MRSA,256
same,MIC pp296 (mouse serum),S. aureus isolates [1]; NRS271 MRSA/LRSA,64
same,MIC pp296 (human serum),S. aureus isolates [1]; ATCC 29213 MSSA,1
same,MIC pp296 (human serum),S. aureus isolates [1]; CAIRD426 MRSA,1
same,MIC pp296 (human serum),S. aureus isolates [1]; HPV107 MRSA,1
same,MIC pp296 (human serum),S. aureus isolates [1]; JMI227 MRSA,1
same,MIC pp296 (human serum),S. aureus isolates [1]; JMI4789 MRSA,1
same,MIC pp296 (human serum),S. aureus isolates [1]; NRS100 (COL) MRSA,1
same,MIC pp296 (human serum),S. aureus isolates [1]; NRS123 (MW2) MRSA,1
same,MIC pp296 (human serum),S. aureus isolates [1]; NRS271 MRSA/LRSA,0.5
same,MIC pp296 (AST media),S. aureus isolates [1]; ATCC 29213 MSSA,1
same,MIC pp296 (AST media),S. aureus isolates [1]; CAIRD426 MRSA,1
same,MIC pp296 (AST media),S. aureus isolates [1]; HPV107 MRSA,1
same,MIC pp296 (AST media),S. aureus isolates [1]; JMI227 MRSA,0.5
same,MIC pp296 (AST media),S. aureus isolates [1]; JMI4789 MRSA,1
same,MIC pp296 (AST media),S. aureus isolates [1]; NRS100 (COL) MRSA,1
same,MIC pp296 (AST media),S. aureus isolates [1]; NRS123 (MW2) MRSA,1
same,MIC pp296 (AST media),S. aureus isolates [1]; NRS271 MRSA/LRSA,1
same,Replicate Log10 CFU/thigh data,"S. aureus isolates [2]; ATCC2921, pp296 50 mg/kg alone, 50 mg/kg",8.15 Log10 CFU/thigh (2×) and 8.58 Log10 CFU/thigh and 7.86 Log10 CFU/thigh and 6.81 Log10 CFU/thigh and 8.00 Log10 CFU/thigh
same,Replicate Log10 CFU/thigh data,"S. aureus isolates [2]; CAIRD426, pp296 50 mg/kg alone (VAN 1.5 mg/kg study)",5.41 Log10 CFU/thigh and 5.80 Log10 CFU/thigh and 7.92 Log10 CFU/thigh and 8.33 Log10 CFU/thigh and 4.90 Log10 CFU/thigh and 6.18 Log10 CFU/thigh
same,Replicate Log10 CFU/thigh data,"S. aureus isolates [2]; CAIRD426, pp296 50 mg/kg alone, Run #1, 50 mg/kg",6.04 Log10 CFU/thigh and 4.62 Log10 CFU/thigh and 5.46 Log10 CFU/thigh and 4.94 Log10 CFU/thigh and 6.53 Log10 CFU/thigh and 6.00 Log10 CFU/thigh
same,Replicate Log10 CFU/thigh data,"S. aureus isolates [2]; CAIRD426, pp296 50 mg/kg alone, Run #2, 50 mg/kg",8.14 Log10 CFU/thigh and 7.97 Log10 CFU/thigh and 4.83 Log10 CFU/thigh and 4.79 Log10 CFU/thigh and 5.84 Log10 CFU/thigh and 6.07 Log10 CFU/thigh
